Data from PMC4011729, “Inhibiting Heat Shock Factor 1 in Human Cancer Cells with a Potent RNA Aptamer”.

Experiments:
HSF1 = HSF1 (Homo sapiens, UniProt Q00613 1-529); experiment: EMSA; apparent Kd, n = 5; 1 nM RNA; EMSA: 1X binding buffer (composition not given), 1 µg yeast RNA, 4 µg BSA, 5 mM DTT, 10% glycerol, 6 U SUPERase-In in 10 µl; room temperature 30 min then 4 C 10 min; 6-9% native gel, 1/4 TBE, 1 mM MgCl2, 4 C; pH not stated; details: protein: recombinant; tags: His; label: internal 32P-UTP; two aptamer units, 5' and 3' ends protected
HSF2 = HSF2 (Homo sapiens, UniProt Q03933 1-536); experiment: EMSA; apparent affinity from % shifted complex; 1 nM RNA; EMSA: 1X binding buffer (composition not given), 1 µg yeast RNA, 4 µg BSA, 5 mM DTT, 10% glycerol, 6 U SUPERase-In in 10 µl; room temperature 30 min then 4 C 10 min; 6-9% native gel, 1/4 TBE, 1 mM MgCl2, 4 C; pH not stated; details: protein: recombinant; tags: His; label: internal 32P-UTP; two aptamer units, 5' and 3' ends protected
Sequence of HSF2 (Q03933 whole entry): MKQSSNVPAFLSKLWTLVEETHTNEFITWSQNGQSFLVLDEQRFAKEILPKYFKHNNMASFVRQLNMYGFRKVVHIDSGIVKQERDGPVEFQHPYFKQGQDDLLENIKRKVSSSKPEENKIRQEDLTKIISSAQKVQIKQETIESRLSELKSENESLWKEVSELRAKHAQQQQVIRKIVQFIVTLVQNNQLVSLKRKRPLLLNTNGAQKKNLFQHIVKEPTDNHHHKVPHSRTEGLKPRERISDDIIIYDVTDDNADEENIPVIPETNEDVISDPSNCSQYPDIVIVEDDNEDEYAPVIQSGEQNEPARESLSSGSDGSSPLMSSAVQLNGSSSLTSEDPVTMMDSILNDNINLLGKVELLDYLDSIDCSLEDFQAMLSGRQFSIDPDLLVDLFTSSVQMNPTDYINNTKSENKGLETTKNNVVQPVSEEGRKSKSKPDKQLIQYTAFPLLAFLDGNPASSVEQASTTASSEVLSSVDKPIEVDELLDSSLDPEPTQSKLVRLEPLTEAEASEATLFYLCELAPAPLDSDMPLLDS

Sequence of HSF1 (Q00613 whole entry): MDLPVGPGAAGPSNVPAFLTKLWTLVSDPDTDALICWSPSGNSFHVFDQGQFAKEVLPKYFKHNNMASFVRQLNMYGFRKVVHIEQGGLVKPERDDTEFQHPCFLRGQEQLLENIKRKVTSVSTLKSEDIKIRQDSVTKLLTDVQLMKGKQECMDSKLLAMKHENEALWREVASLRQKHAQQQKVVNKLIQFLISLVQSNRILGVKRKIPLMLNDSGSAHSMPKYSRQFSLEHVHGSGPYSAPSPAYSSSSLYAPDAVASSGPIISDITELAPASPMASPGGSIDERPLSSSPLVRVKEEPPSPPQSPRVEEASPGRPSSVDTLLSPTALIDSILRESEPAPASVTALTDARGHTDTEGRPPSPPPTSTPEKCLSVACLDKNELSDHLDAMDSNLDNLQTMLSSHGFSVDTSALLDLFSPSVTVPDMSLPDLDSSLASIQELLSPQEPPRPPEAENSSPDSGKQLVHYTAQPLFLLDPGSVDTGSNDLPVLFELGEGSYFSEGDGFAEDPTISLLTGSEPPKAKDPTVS

B1: iaRNAHSF1 (structured_RNA)
RNA: GUCGAGUGACGUUGGCAUCGCGAUACAAAAUUAAGUUGAACGCGAGUUCUUCGGAAUUCAACUGCCUUCGUCAUACUCCUUGAAUUCAACUGCCUUCGGGCAUCGCGAUACAAAAUUAAGUUGAACGCGAGUUCUUGGAGGCUCGACGUCUAGCGAUGUGGUUUCGCUACUGAUGAGUCCGUGAGGACGAAAC
Binder B1 has a Kd (HSF1) of ~25 nM and a Kd (HSF2) of ~141 nM.
